B1: MON-HT55: engineered oxygenase protein, amino acid sequence SEQ ID NO:11 (protein)
chain: MHAALSPLSQRFERIAVQPLTGVLGAEITGVDLREPLDDSTWNEILDAFHTYQVIYFPGQAITNEQHIAFSRRFGPVDPVPLLKSIEGYPEVQMIRREANESGRVIGENWHTDSTFLDAPPAAVVMYAKEIPPYGGDTLFTSMYTAWETLSPTMQATIEGLNVVHSATRVFGSLYQAQNRRFSNTSVKVMDVDAGDRETVHPLVVTHPETGRKGLYVNQVYCQRIEGMSEKESEPLLSFLFAHATKPEFTCRVRWQEGDVLVWDNLCTQHYAVPDYAGKFRYLTRTTVGGVRPAR
B2: MON-HT1: engineered oxygenase protein, amino acid sequence SEQ ID NO:14 (protein)
chain: MHAALTPLTNKYRFIDVQPLTGVLGAEITGVDLREPLDDSTWNEILDAFHTYQVIYFPGQAITNEQHIAFSRRFGPVDPVPILKSIEGYPEVQMIRREANESSRFIGDDWHTDSTFLDAPPAAVVMRAIEVPEYGGDTGFLSMYSAWETLSPTMQATIEGLNVVHSATKVFGSLYQATNWRFSNTSVKVMDVDAGDRETVHPLVVTHPVTGRRALYCNQVYCQKIQGMTDAESKSLLQFLYEHATKFDFTCRVRWKKDQVLVWDNLCTMHRAVPDYAGKFRYLTRTTVAGDKPSR
B3: MON-HT2: engineered oxygenase protein, amino acid sequence SEQ ID NO:18 (protein)
chain: MHAALTPLTNKYRFIDVQPLTGVLGAEITGVDLREPLDDSTWNEILDAFHTYQVIYFPGQAITNEQHIAFSRRFGPVDPVPLLKSIEGYPEVQMIRREANESSRVIGDDWHSDSTFLDAPPAAVVMRAIEVPEYGGDTGFLSMYSAWETLSPTMQATIEGLNVVHSATKVFGSLYQATNWRFSNTSVKVMDVDAGDRETVHPLVVTHPVTGRRALYCNQVYCQKIQGMTDAESKSLLQFLYEHATKFDFTCRVRWKKDQVLVWDNLCTMHRAAPDYAGKFRYLTRTTVAGDKPSR
B4: MON-HT51: engineered oxygenase protein, amino acid sequence SEQ ID NO:1 (protein)
chain: MHAALSPLSQRFERIAVQPLTGVLGAEITGVDLREPLSDSTWNEILDAFHTYQVIYFPGQAITNEQHIAFSRRFGPVDPVPLLKSIEGYPEVQMIRREANESGRVIGDDWHTDSSFLDAPPAAVVMRAIDVPEHGGDTGFLSMYTAYDALSDGLKKLISGLNVVHSATRVFGSLYQAQNRRFSNTSVKVMDVADGDRETVHPLVVTHPGSGRKGLYVNQVYCQRIEGMSEKESEPLLSFLFAHATKPEFTCRVRWKKDQVLVWDNLCTMHYAINDYHGQTRILHRTTVGGVRPAR

Columns and labels:
[1] = high-throughput enzyme assay with crude bacterial extract; assay type: biochemical; conditions: relative to wild-type RdpA; for Average quizalofop-P activity: average of replicates
Procedure: The high-throughput bacterial protein expression was achieved by synthesizing a recombinant DNA molecule encoding each engineered protein and cloning this into a bacterial expression vector with a C-terminal histidine tag (His-tag) operably linked to the recombinant DNA molecule. The vectors were used to transform Escherichia coli (E. coli), and bacterial expression of the engineered proteins was induced. Overnight E. coli cultures were grown in 96-well plates and the cultures were centrifuged to pellet the bacteria. The bacterial pellets were lysed by adding 100 ul lysis master mix (10 ml of Bacteria Protein Extraction Reagent (B-PER®) II (Pierce Biotechnology, Rockford, IL; cat. no. 78260); 10 ul Lysozyme (10 ug/ml final; Lysozyme American Bioanalytical, Natick, MA; cat. no. AB011780-00005); and 40 ul Benzonase® Nuclease (100 Units/ml final, Novagen, Darmstadt, Germany; cat no 71206-3)) to each well. The plates were vortexed then incubated for 30 minutes at 4° C. 400 ul of MOPS buffer (pH 6.57) was added to cach well and the debris pelleted by centrifugation. The lysate supernatant was carefully removed and used as the crude bacterial extract for subsequent enzymatic analysis.
The high-throughput herbicide degradation enzyme assay was designed to assay the enzymatic activity of the engineered proteins towards various herbicides using crude bacterial extract. The engineered protein's oxygenase activity (that is, its enzymatic activity) was measured by an end point colorimetric assay utilizing detection of phenol products through measurement of absorbance at 510 nm from 4-aminoantipyrine and potassium ferricyanide. This assay was based on the assay described in Fukomori and Hausinger, Journal of Biological Chemistry (1993) 268(32):24311-24317. Enzyme reactions were assayed in 96-well plates in a total volume of 150ul that contained: 20 mM MOPS pH 6.75, 50-200 uM NH4FeSO4, 50-200 uM sodium ascorbate, 1 mM alpha-ketoglutarate (aKG), 10 ul of E. coli cell lysate containing expressed engineered protein, and substrate (either an AOPP herbicide or phenoxy acid herbicide). […] Absorbance measurements were made on a standard laboratory spectrometer. Assays were scaled as needed to enhance throughput. Standard curves were generated using purified protein or product standards.
Using this high-throughput bacterial protein expression and enzyme assay system, activities of approximately 1200 engineered proteins were measured relative to the activity of a selected wild-type protein, RdpA. In a 96 well plate assay, there were 3 controls (crude bacterial extract without an engineered protein) and 3 positive controls (crude bacterial extract with wild-type protein). The absorbance of the wells was measured and the protein activity was calculated using the following formula:
[formula] where, Activityi is the activity of the sample, Absorbancei is the absorbance of the sample, AbsorbanceWT is the absorbance of the wells containing extract from E. coli expressing the wild-type enzyme, and AbsorbancepET is the absorbance of the wells containing extract from E. coli without an engineered protein. Activity for each unique engineered protein was measured in duplicate and was reported as an average of the two measurements.
Using the information learned from the first assays, protein engineering was then done as described previously to produce additional engineered proteins, which were tested as described in this Example 1. The results of the high-throughput enzyme assay with quizalofop-P as the substrate for five of these additional engineered proteins are provided in Table 2.

[2] = tested on: F1 hybrid maize plants; assay: plant-based assay for heat sensitivity, quizalofop-P tolerance; assay type: in vivo; conditions: 2× quizalofop-P, ten days post treatment, 0 no visible injury, 5 dead plants
Procedure: A plant-based enzyme activity assay for heat sensitivity was used to determine the effect of elevated growth temperatures on the herbicide tolerance of transgenic plants containing the optimized engineered proteins. To test for quizalofop-P tolerance at elevated growth temperatures, F1 hybrid (produced by crossing an R1 homozygous plant expressing one of the MON-HT proteins with inbred maize event MON89034) maize seed was grown in a growth chamber for 10 days at a day temperature of 28° C. and a night temperature of 20° C. with 50% humidity. After 10 days, the plants were moved to acclimate for 3 days at one of three different day and night temperature regimens: (1) both day and night temperatures set at 20° C.; (2) day temperature at 28° C. and night temperature at 20° C.; or (3) day temperature at 38° C. and night temperature at 30° C. At the end of the acclimation period, the plants were generally at V4 growth stage and were sprayed with 2× quizalofop-P. Ten days post treatment the plants were scored for injury on a rating scale of 1 to 5 where ‘0’ is no visible injury observed, ‘1’ is chlorotic speckling, ‘2’ is chlorotic streaking, ‘3’ there are leaf gaps or tears, ‘4’ are plants with stunted growth and/or twisted leaves, and ‘5’ are dead plants or no growth observed. […] (FIG. 4A) or 28° C./20° C. […]

[3] = tested on: transgenic soybean plants; assay: R0 soybean green house 2,4-D spray test; assay type: in vivo; conditions: single copy R0 soy events
Excerpt: Two engineered proteins were selected for analysis in transgenic soybean. DNA constructs were produced for expressing MON-HT1 (SEQ ID NO:14) and MON-HT2 (SEQ ID NO:18) with codon usage optimized for dicot expression using methods known to those skilled in the art. Enhancers, promoters, leaders, introns, CTPs, and 3′UTRs in various combinations were operably linked to the engineered proteins in these DNA constructs. The DNA constructs were used to transform soybean using Agrobacterium tumifaciens and standard methods known in the art. Regenerated R0 transgenic plantlets were grown in the green house. Approximately 9 weeks after transformation at the 1-2 trifoliate leaf stage, single copy R0 events were identified and sprayed with 2,4-D herbicide at a rate of 0.5× (0.375 lb ae/acre), 2× (1.5 lb ae/acre), or 4× (3.0 lb ae/acre). Approximately 2 weeks after herbicide application, the plants were rated for herbicide injury on a scale of 1 to 3, where 1=little to no injury (<20%), 2=moderate injury (20-50%) and 3=severe injury (>50%).

[4] = CTP No, 2,4-D rate 0.5X, about 2 weeks after application

Molecule	Replicate 1 quizalofop-P activity [1]	Replicate 2 quizalofop-P activity [1]	Average quizalofop-P activity [1]	Events with 20-50% injury ([3]; CTP No, 2,4-D rate 0.5X)	Events with injury >50% ([3]; CTP No, 2,4-D rate 0.5X)	Events with <20% injury [3, 4]	other results
B1	118.48	99.79	109.13				injury rating ([2]; day/night 20° C./20° C. or 28° C./20° C.): around 2; injury rating ([2]; day/night 38° C./30° C.): 3
B2				10	0	120	Events with 20-50% injury ([3]; CTP No, 2,4-D rate 2X): 30; Events with <20% injury ([3]; CTP No, 2,4-D rate 2X): 6; Events with injury >50% ([3]; CTP No, 2,4-D rate 2X): 0; Events with 20-50% injury ([3]; CTP Yes, 2,4-D rate 2X): 35; Events with <20% injury ([3]; CTP Yes, 2,4-D rate 2X): 101; Events with injury >50% ([3]; CTP Yes, 2,4-D rate 2X): 0; Events with 20-50% injury ([3]; CTP Yes, 2,4-D rate 4X): 6; Events with <20% injury ([3]; CTP Yes, 2,4-D rate 4X): 5; Events with injury >50% ([3]; CTP Yes, 2,4-D rate 4X): 0
B3				19	0	3	
B4	117.02	124.87	117.35				Replicate 3 quizalofop-P activity [1]: 110.17
